Measured values taken from patent US20090136481A1.

Biological target: recombinant myostatin
Experiment: cell-based or functional assay

## 350 protein (dominant negative peptide of myostatin C-terminally truncated at amino acid 350; amino acids 267-350 of bovine myostatin) (from UniProt O18836 267-350)
  macrophage migration in chemotaxis assay (ZAMS medium with 5 µg/ml myostatin, with or without 350 protein): 20 fold
